Several values for one entry are separate records, joined by “and”; a condition that tells them apart may be missing. Equal values may be shown once.

Series [1] concerns the target tES–F116H(+) (Archaeoglobus fulgidus). Nature of the series: AUC; sedimentation of tES–F116H/POI samples (1 µM) in PBS, 20 °C, absorbance at 280 nm; POI loaded into tES by pH shift 5.8 to 8.0 and dialysis.
The target in series [2] is tES–F116H(+/–) (Archaeoglobus fulgidus). Nature of the series: AUC.
For series [3], the target named is tES–F116H(+) (Archaeoglobus fulgidus). Nature of the series: AUC.
Series [4] has as its target tES–F116H(–) (Archaeoglobus fulgidus). Nature of the series: AUC.
The series “AUC” concerns the molecule itself. Nature of the series: AUC.
For series [5], the target named is tES–F116H(+) (Archaeoglobus fulgidus). Nature of the series: AUC. This is another data set of the same source.

“Renilla luciferin 2-monooxygenase (from UniProt P27652 1-311) (enzyme)”: the stoichiometry N (rLuc per tES shell) in series [1] is 2 and 1.

For “Tumor protein 53, stabilized clone (from UniProt P04637 1-393) (natural protein)”, the stoichiometry N (p53 per tES shell) in series [2] and in series [3] was 1 throughout.

Molecule rFasxiator (natural protein) gave a stoichiometry N (rFasxiator per tES shell) in series [4] of 3.

B1: Shrimp alkaline phosphatase (enzyme, UniProt Q9BHT8 1-475, looked up)
chain: KAYWNKDAQDALDKQLGIKLREKQAKNVIFFLGDGMSLSTVTAARIYKGGLTGKFEREKISWEEFDFAALSKTYNTDKQVTDSAASATAYLTGVKTNQGVIGLDANTVRTNCSYQLDESLFTYSIAHWFQEAGRSTGVVTSTRVTHATPAGTYAHVADRDWENDSDVVHDREDPEICDDIAEQLVFREPGKNFKVIMGGGRRGFFPEEALDIEDGIPGEREDGKHLITDWLDDKASQGATASYVWNRDDLLAVDIRNTDYLMGLFSYTHLDTVLTRDAEMDPTLPEMTKVAIEMLTKDENGFFLLVEGGRIDHMHHANQIRQSLAETLDMEEAVSMALSMTDPEETIILVTADHGHTLTITGYADRNTDILDFAGISDLDDRRYTILDYGSGPGYHITEDGKRYEPTEEDLKDINFRYASAAPKHSVTHDGTDVGIWVNGPFAHLFTGVYEENYIPHALAYAACVGTGRTFCDEK
notes: also called sAP; AP
For B1, the “stoichiometry N” value in “AUC” was 2. This molecule registered a stoichiometry N (sAP per tES shell) in series [5] of 1.

The record behind these values is paper PMC8481291 (Nature Communications, 2021).
